Reference: paper PMC7538550

Biological target: FMDV A2001 Argentina capsid protomer (VP0, VP3 and VP1 cut from the polyprotein P12A by protease 3C) (Foot-and-mouth disease virus, serotype A, A2001 Argentina strain)
Assay: sucrose gradient ultracentrifugation with ELISA of the fractions

Substance “FMDV A2001 Argentina capsid protomer (VP0, VP3 and VP1 cut from the polyprotein P12A by protease 3C) (complex)” has a percent of the antigen present as complete empty capsids (75s) of 84%.
